From paper PMC6459841, “Structural analyses of NudT16–ADP-ribose complexes direct rational design of mutants with improved processing of poly(ADP-ribosyl)ated proteins” (Scientific Reports, 2019)

B1: Homo sapiens NudT16 (HsNudT16) (enzyme, human)
chain: MAGARRLELGEALALGSGWRHVCHALLYAPDPGMLFGRIPLRYAILMQMRFDGRLGFPGGFVDTQDRSLEDGLNRELREELGEAAAAFRVERTDYRSSHVGSGPRVVAHFYAKRLTLEELLAVEAGATRAKDHGLEVLGLVRVPLYTLRDGVGGLPTFLENSFIGSAREQLLEALQDLGLLQSGSISGLKIPAHH
notes: carries A22V as in the Mammalian Gene Collection clone BC031215; subcloned in pNIC28-BSA4; Dimer in solution (SEC) and in the crystal; also called wild-type HsNudT16; native HsNudT16; source: E. coli CodonPlus RIPL, purified (Ni-NTA, TEV cleavage, anion exchange, SEC); not shown: His6, N-terminal, cleaved
B2: HsNudT16 H24W (enzyme, human)
chain: MAGARRLELGEALALGSGWRHVCWALLYAPDPGMLFGRIPLRYAILMQMRFDGRLGFPGGFVDTQDRSLEDGLNRELREELGEAAAAFRVERTDYRSSHVGSGPRVVAHFYAKRLTLEELLAVEAGATRAKDHGLEVLGLVRVPLYTLRDGVGGLPTFLENSFIGSAREQLLEALQDLGLLQSGSISGLKIPAHH
notes: also called H24W mutant; source: E. coli CodonPlus RIPL, purified (Ni-NTA, TEV cleavage, anion exchange, SEC); not shown: His6, N-terminal, cleaved
B3: HsNudT16 F61S (enzyme, human)
chain: MAGARRLELGEALALGSGWRHVCHALLYAPDPGMLFGRIPLRYAILMQMRFDGRLGFPGGSVDTQDRSLEDGLNRELREELGEAAAAFRVERTDYRSSHVGSGPRVVAHFYAKRLTLEELLAVEAGATRAKDHGLEVLGLVRVPLYTLRDGVGGLPTFLENSFIGSAREQLLEALQDLGLLQSGSISGLKIPAHH
notes: also called F61S mutant; source: E. coli CodonPlus RIPL, purified (Ni-NTA, TEV cleavage, anion exchange, SEC); not shown: His6, N-terminal, cleaved

Target: the molecule itself
Assay: SEC; Superdex 75 10/300; 100 µL of each purified protein loaded at 0.3 mL/min, eluted over one column volume; Bio-Rad size standards; dimer to monomers

Protein | stoichiometry N
B1 | 2
B2 | 2
B3 | 2
